In test [1] the target is T1, HCV proteins (Hepatitis C virus genotype 1b, UniProt Q9WMX2).
T1 construct: expressed in transfected cells
Kind of test: Validation by Y2H pairwise matrices.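 Also: yeast two-hybrid pairwise tests of interactions first found in Y2H screens of HCV bait proteins against human cDNA libraries.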 Format: binding.

In test [2] the target is T2, HCV ORFs (Gal4-DB fusions) (Hepatitis C virus genotype 1b, UniProt Q9WMX2).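 Also: yeast two-hybrid screens using HCV genotype 1b proteins fused to Gal4-DB as baits against prey cDNA libraries from human spleen and foetal brain, IMAP1 via transformation and IMAP2 via mating.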
T2 construct: expressed in transfected cells; host or cells: Saccharomyces cerevisiae MAV203 (IMAP1) / AH109 (IMAP2)
Format: binding, HCV genotype 1b, isolate con1. The conditions noted are these: human protein as prey.

Test [3] deals with HCV ORFs (Gal4-DB fusions). Format: binding, HCV genotype 1b, isolate con1. As to conditions: human protein listed by gene symbol; the value names the HCV protein it interacts with.
Setting [4] is: validation of interaction with HCV protein NS3.

Read-outs that look alike come from different tables or passages of the source.

B1: SERTAD1 (protein, UniProt Q9UHV2 1-236, looked up)
SERTA domain-containing …: MLSKGLKRKREEEEEKEPLAVDSWWLDPGHTAVAQAPPAVASSSLFDLSVLKLHHSLQQSEPDLRHLVLVVNTLRRIQASMAPAAALPPVPSPPAAPSVADNLLASSDAALSASMASLLEDLSHIEGLSQAPQPLADEGPPGRSIGGAAPSLGALDLLGPATGCLLDDGLEGLFEDIDTSMYDNELWAPASEGLKPGPEDGPGKEEAPELDEAELDYLMDVLVGTQALERPPGPGR
For B1, in test [1] (setting [4]), the Y2H matrices result is reported as “+”. In addition, the “IMAP Y2H IMAP1 (number of IST)” value in test [2] (HCV protein NS3 as bait) was found to be 3. In addition, the “Interaction with viral protein” value in test [3] was “NS3”.

B2: SF3B2 (protein, UniProt Q13435 1-895, looked up)
Splicing factor 3B subunit 2: MATEHPEPPKAELQLPPPPPPGHYGAWAAQELQAKLAEIGAPIQGNREELVERLQSYTRQTGIVLNRPVLRGEDGDKAAPPPMSAQLPGIPMPPPPLGLPPLQPPPPPPPPPPGLGLGFPMAHPPNLGPPPPLRVGEPVALSEEERLKLAQQQAALLMQQEERAKQQGDHSLKEHELLEQQKRAAVLLEQERQQEIAKMGTPVPRPPQDMGQIGVRTPLGPRVAAPVGPVGPTPTVLPMGAPVPRPRGPPPPPGDENREMDDPSVGPKIPQALEKILQLKESRQEEMNSQQEEEEMETDARSSLGQSASETEEDTVSVSKKEKNRKRRNRKKKKKPQRVRGVSSESSGDREKDSTRSRGSDSPAADVEIEYVTEEPEIYEPNFIFFKRIFEAFKLTDDVKKEKEKEPEKLDKLENSAAPKKKGFEEEHKDSDDDSSDDEQEKKPEAPKLSKKKLRRMNRFTVAELKQLVARPDVVEMHDVTAQDPKLLVHLKATRNSVPVPRHWCFKRKYLQGKRGIEKPPFELPDFIKRTGIQEMREALQEKEEQKTMKSKMREKVRPKMGKIDIDYQKLHDAFFKWQTKPKLTIHGDLYYEGKEFETRLKEKKPGDLSDELRISLGMPVGPNAHKVPPPWLIAMQRYGPPPSYPNLKIPGLNSPIPESCSFGYHAGGWGKPPVDETGKPLYGDVFGTNAAEFQTKTEEEEIDRTPWGELEPSDEESSEEEEEEESDEDKPDETGFITPADSGLITPGGFSSVPAGMETPELIELRKKKIEEAMDGSETPQLFTVLPEKRTATVGGAMMGSTHIYDMSTVMSRKGPAPELQGVEVALAPEELELDPMAMTQKYEEHVREQQAQVEKEDFSDMVAEHAAKQKQKKRKAQPQDSRGGSKKYKEFKF
For the molecule B2, in test [1] (setting [4]), the Y2H matrices result was “+”. In addition, the “IMAP Y2H IMAP1 (number of IST)” value in test [2] (HCV protein NS3 as bait) is recorded as 1. Further, the “Interaction with viral protein” value in test [3] is given as “NS3”.

B3: RBM4 (protein, UniProt Q9BWF3 1-364, looked up)
RNA-binding protein 4: MVKLFIGNLPREATEQEIRSLFEQYGKVLECDIIKNYGFVHIEDKTAAEDAIRNLHHYKLHGVNINVEASKNKSKTSTKLHVGNISPTCTNKELRAKFEEYGPVIECDIVKDYAFVHMERAEDAVEAIRGLDNTEFQGKRMHVQLSTSRLRTAPGMGDQSGCYRCGKEGHWSKECPIDRSGRVADLTEQYNEQYGAVRTPYTMSYGDSLYYNNAYGALDAYYKRCRAARSYEAVAAAAASVYNYAEQTLSQLPQVQNTAMASHLTSTSLDPYDRHLLPTSGAAATAAAAAAAAAAVTAASTSYYGRDRSPLRRATAPVPTVGEGYGYGHESELSQASAAARNSLYDMARYEREQYADRARYSAF
B3: the Y2H matrices result in test [1] (setting [4]) was “+”. Further, the “IMAP Y2H IMAP1 (number of IST)” value in test [2] (HCV protein NS3 as bait) is 1. For the same molecule, in test [3], the “Interaction with viral protein” value is on record as “NS3”.

B4: SIAH1 (protein, UniProt Q8IUQ4 1-282, looked up)
E3 ubiquitin-protein ligase …: MSRQTATALPTGTSKCPPSQRVPALTGTTASNNDLASLFECPVCFDYVLPPILQCQSGHLVCSNCRPKLTCCPTCRGPLGSIRNLAMEKVANSVLFPCKYASSGCEITLPHTEKADHEELCEFRPYSCPCPGASCKWQGSLDAVMPHLMHQHKSITTLQGEDIVFLATDINLPGAVDWVMMQSCFGFHFMLVLEKQEKYDGHQQFFAIVQLIGTRKQAENFAYRLELNGHRRRLTWEATPRSIHEGIATAIMNSDCLVFDTSIAQLFAENGNLGINVTISMC
As to B4, the Y2H matrices result in test [1] (setting [4]) is “+”. The “IMAP Y2H IMAP1 (number of IST)” value in test [2] (HCV protein NS3 as bait) was 1. Further, in test [3], the “Interaction with viral protein” value is given as “NS3”.

B5: RCN3 (protein, UniProt Q96D15 21-328, looked up)
Reticulocalbin-3: KPSPDAGPHGQGRVHQAAPLSDAPHDDAHGNFQYDHEAFLGREVAKEFDQLTPEESQARLGRIVDRMDRAGDGDGWVSLAELRAWIAHTQQRHIRDSVSAAWDTYDTDRDGRVGWEELRNATYGHYAPGEEFHDVEDAETYKKMLARDERRFRVADQDGDSMATREELTAFLHPEEFPHMRDIVIAETLEDLDRNKDGYVQVEEYIADLYSAEPGEEEPAWVQTERQQFRDFRDLNKDGHLDGSEVGHWVLPPAQDQPLVEANHLLHESDTDKDGRLSKAEILGNWNMFVGSQATNYGEDLTRHHDEL
Turning to B5, the Y2H matrices entry in test [1] (setting [4]) is on record as “+”. Besides, the “IMAP Y2H IMAP1 (number of IST)” value in test [2] (HCV protein NS3 as bait) is recorded as 2. Besides, in test [3], the “Interaction with viral protein” value is on record as “NS3”.

B6: SECISBP2 (protein, UniProt Q96T21 1-854, looked up)
Selenocysteine insertion …: MASEGPREPESEGIKLSADVKPFVPRFAGLNVAWLESSEACVFPSSAATYYPFVQEPPVTEQKIYTEDMAFGASTFPPQYLSSEITLHPYAYSPYTLDSTQNVYSVPGSQYLYNQPSCYRGFQTVKHRNENTCPLPQEMKALFKKKTYDEKKTYDQQKFDSERADGTISSEIKSARGSHHLSIYAENSLKSDGYHKRTDRKSRIIAKNVSTSKPEFEFTTLDFPELQGAENNMSEIQKQPKWGPVHSVSTDISLLREVVKPAAVLSKGEIVVKNNPNESVTANAATNSPSCTRELSWTPMGYVVRQTLSTELSAAPKNVTSMINLKTIASSADPKNVSIPSSEALSSDPSYNKEKHIIHPTQKSKASQGSDLEQNEASRKNKKKKEKSTSKYEVLTVQEPPRIEDAEEFPNLAVASERRDRIETPKFQSKQQPQDNFKNNVKKSQLPVQLDLGGMLTALEKKQHSQHAKQSSKPVVVSVGAVPVLSKECASGERGRRMSQMKTPHNPLDSSAPLMKKGKQREIPKAKKPTSLKKIILKERQERKQRLQENAVSPAFTSDDTQDGESGGDDQFPEQAELSGPEGMDELISTPSVEDKSEEPPGTELQRDTEASHLAPNHTTFPKIHSRRFRDYCSQMLSKEVDACVTDLLKELVRFQDRMYQKDPVKAKTKRRLVLGLREVLKHLKLKKLKCVIISPNCEKIQSKGGLDDTLHTIIDYACEQNIPFVFALNRKALGRSLNKAVPVSVVGIFSYDGAQDQFHKMVELTVAARQAYKTMLENVQQELVGEPRPQAPPSLPTQGPSCPAEDGPPALKEKEEPHYIEIWKKHLEAYSGCTLELEESLEASTSQMMNLNL
With B6, the Y2H matrices result in test [1] (setting [4]) was “+”. Besides, the “IMAP Y2H IMAP1 (number of IST)” value in test [2] (HCV protein NS3 as bait) was 1. The “Interaction with viral protein” value in test [3] was “NS3”.

B7: PAK4 (protein, UniProt O96013 1-591, looked up)
Serine/threonine-protein …: MFGKRKKRVEISAPSNFEHRVHTGFDQHEQKFTGLPRQWQSLIEESARRPKPLVDPACITSIQPGAPKTIVRGSKGAKDGALTLLLDEFENMSVTRSNSLRRDSPPPPARARQENGMPEEPATTARGGPGKAGSRGRFAGHSEAGGGSGDRRRAGPEKRPKSSREGSGGPQESSRDKRPLSGPDVGTPQPAGLASGAKLAAGRPFNTYPRADTDHPSRGAQGEPHDVAPNGPSAGGLAIPQSSSSSSRPPTRARGAPSPGVLGPHASEPQLAPPACTPAAPAVPGPPGPRSPQREPQRVSHEQFRAALQLVVDPGDPRSYLDNFIKIGEGSTGIVCIATVRSSGKLVAVKKMDLRKQQRRELLFNEVVIMRDYQHENVVEMYNSYLVGDELWVVMEFLEGGALTDIVTHTRMNEEQIAAVCLAVLQALSVLHAQGVIHRDIKSDSILLTHDGRVKLSDFGFCAQVSKEVPRRKSLVGTPYWMAPELISRLPYGPEVDIWSLGIMVIEMVDGEPPYFNEPPLKAMKMIRDNLPPRLKNLHKVSPSLKGFLDRLLVRDPAQRATAAELLKHPFLAKAGPPASIVPLMRQNRTR
Turning to B7, the Y2H matrices result in test [1] (validation of interaction with HCV protein CORE) is “+”. Also, the “IMAP Y2H IMAP1 (number of IST)” value in test [2] (HCV protein CORE as bait) is 1. In addition, in test [3], the “Interaction with viral protein” value is “CORE”.

B8: SESTD1 (protein, UniProt Q86VW0 1-696, looked up)
SEC14 domain and spectrin …: MEASVILPILKKKLAFLSGGKDRRSGLILTIPLCLEQTNMDELSVTLDYLLSIPSEKCKARGFTVIVDGRKSQWNVVKTVVVMLQNVVPAEVSLVCVVKPDEFWDKKVTHFCFWKEKDRLGFEVILVSANKLTRYIEPCQLTEDFGGSLTYDHMDWLNKRLVFEKFTKESTSLLDELALINNGSDKGNQQEKERSVDLNFLPSVDPETVLQTGHELLSELQQRRFNGSDGGVSWSPMDDELLAQPQVMKLLDSLREQYTRYQEVCRQRSKRTQLEEIQQKVMQVVNWLEGPGSEQLRAQWGIGDSIRASQALQQKHEEIESQHSEWFAVYVELNQQIAALLNAGDEEDLVELKSLQQQLSDVCYRQASQLEFRQNLLQAALEFHGVAQDLSQQLDGLLGMLCVDVAPADGASIQQTLKLLEEKLKSVDVGLQGLREKGQGLLDQISNQASWAYGKDVTIENKENVDHIQGVMEDMQLRKQRCEDMVDVRRLKMLQMVQLFKCEEDAAQAVEWLSELLDALLKTHIRLGDDAQETKVLLEKHRKFVDVAQSTYDYGRQLLQATVVLCQSLRCTSRSSGDTLPRLNRVWKQFTIASEERVHRLEMAIAFHSNAEKILQDCPEEPEAINDEEQFDEIEAVGKSLLDRLTVPVVYPDGTEQYFGSPSDMASTAENIRDRMKLVNLKRQQLRHPEMVTTES
Consider B8, for which the Y2H matrices entry in test [1] (setting [4]) is “+”. Moreover, in test [2] (HCV protein NS3 as bait), the “IMAP Y2H IMAP1 (number of IST)” value was 1. Besides, the “Interaction with viral protein” value in test [3] is “NS3”.

B9: SDCCAG8 (protein, UniProt Q86SQ7 1-713, looked up)
Serologically defined colon …: MAKSPENSTLEEILGQYQRSLREHASRSIHQLTCALKEGDVTIGEDAPNLSFSTSVGNEDARTAWPELQQSHAVNQLKDLLRQQADKESEVSPSRRRKMSPLRSLEHEETNMPTMHDLVHTINDQSQYIHHLEAEVKFCKEELSGMKNKIQVVVLENEGLQQQLKSQRQEETLREQTLLDASGNMHNSWITTGEDSGVGETSKRPFSHDNADFGKAASAGEQLELEKLKLTYEEKCEIEESQLKFLRNDLAEYQRTCEDLKEQLKHKEFLLAANTCNRVGGLCLKCAQHEAVLSQTHTNVHMQTIERLVKERDDLMSALVSVRSSLADTQQREASAYEQVKQVLQISEEANFEKTKALIQCDQLRKELERQAERLEKELASQQEKRAIEKDMMKKEITKEREYMGSKMLILSQNIAQLEAQVEKVTKEKISAINQLEEIQSQLASREMDVTKVCGEMRYQLNKTNMEKDEAEKEHREFRAKTNRDLEIKDQEIEKLRIELDESKQHLEQEQQKAALAREECLRLTELLGESEHQLHLTRQEKDSIQQSFSKEAKAQALQAQQREQELTQKIQQMEAQHDKTENEQYLLLTSQNTFLTKLKEECCTLAKKLEQISQKTRSEIAQLSQEKRYTYDKLGKLQRRNEELEEQCVQHGRVHETMKQRLRQLDKHSQATAQQLVQLLSKQNQLLLERQSLSEEVDRLRTQLPSMPQSDC
For the molecule B9, the Y2H matrices entry in test [1] (setting [4]) is listed as “+”. For the same molecule, the “IMAP Y2H IMAP1 (number of IST)” value in test [2] (HCV protein NS3 as bait) came to 1. The “Interaction with viral protein” value in test [3] was “NS3”.

The record behind these values is patent US20110091994A1, “Methods for Screening Compounds for Treating and/or Preventing an Hepatitis C Virus Infection” (priority 2008, published 2011).
